According to article PMC9975500, “High level expression of nicotinamide nucleoside kinase from Saccharomyces cerevisiae and its purification and immobilization by one-step method” (Frontiers in Bioengineering and Biotechnology, 2023):

Columns and labels:
[1] = substrate: Nc1ncnc2c1ncn2[C@@H]1O[C@H](COP(=O)(O)OP(=O)(O)OP(=O)(O)O)[C@@H](O)[C@H]1O; assay: HPLC of NMN formed, Michaelis-Menten fit; type: biochemical, Saccharomyces cerevisiae; conditions: free enzyme, NR 1 mM, 10 mM MgCl2, 20 mM Tris-HCl pH 5.8, optimal temperature (30 °C for free enzyme)
purified protein = substrate: NC(=O)c1ccc[n+]([C@@H]2O[C@H](CO)[C@@H](O)[C@H]2O)c1; assay: purified protein; conditions: free enzyme, ATP 1 mM, 10 mM MgCl2, 20 mM Tris-HCl pH 5.8, optimal temperature (30 °C for free enzyme)

B1: reScNRK1 (recombinant nicotinamide riboside kinase1; nicotinamide nucleoside kinase1) (Saccharomyces cerevisiae S288C) (protein)
chain: MTSKKVILVALSGCSSSGKTTIAKLTASLFTKATLIHEDDFYKHDNEVPVDAKYNIQNWDSPEALDFKLFGKELDVIKQTGKIATKLIHNNNVDDPFTKFHIDRQVWDELKAKYDSINDDKYEVVIVDGFMIFNNTGISKKFDLKILVRAPYEVLKKRRASRKGYQTLDSFWVDPPYYFDEFVYESYRANHAQLFVNGDVEGLLDPRKSKNIKEFINDDDTPIAKPLSWVCQEILKLCKD
notes: free enzyme
B1 was tested, and the Km [1] was 54.27 mM, the Vmax [1] was 137 µmol/min/mg and the Km (purified protein) was 18.69 mM. For the same protein, the Vmax (purified protein) was 98.4 µmol/min/mg.
